Measured values published in publication doi:10.1101/2021.10.03.462214.
pKd: −log10 of the molar value.

Target: human 26S proteasome (human) (UniProt P60900)

With “K48 linked tetra-ubiquitin chains (from UniProt P0CG47 1-76)” the pKd was 6.62.
